From publication PMC7018016, “Superstructure formation by RodZ hexamers of Shigella sonnei maintains the rod shape of bacilli” (PLoS ONE, 2020)
Several values for one entry are separate records, joined by “and”; a condition that tells them apart may be missing. Equal entries are not always repeated.

Key:
[1] = target: RodZ_(ΔKRRKKR) (S. sonnei) (UniProt Q3YZ36); experiment: native gel or EMSA; 3%–12% BN-PAGE (NativePAGE Novex Bis-Tris), CBB without SDS, loading buffer with mild detergents; 5 μl of each purified protein
[2] = target: the molecule itself; experiment: cross-linking + other: High-Mass MALDI-TOF MS; serial dilutions (1 mg/ml–19.53 μg/ml) in PBS, treated with K200 Stabilizer crosslinker, CovalX HM3 module, 0–1500 kDa; Complex Tracker software corrects for the mass of the crosslinker; monomer measured without crosslinker
[3] = target: the molecule itself; experiment: native gel or EMSA; 3%–12% BN-PAGE (NativePAGE Novex Bis-Tris), CBB without SDS, loading buffer with mild detergents; 5 μl of each purified protein

Question: With “RodZ_(ΔKRRKKR) (from UniProt Q3YZ36 1-337) (natural protein)” as the molecule, how does the stoichiometry N [1] read?
Answer: 6

B1: RodZ_(50–337) (domain or fragment)
chain: DKAPADLASTFLRGYIRSYARLVHIPEEELLPGLEKQAPLRAAKVAPMQSFSLGKRRKKRDGWLMTFTWLVLFVVIGLSGAWWWQDHKAQQEEITTMADQSSAELSSNSEQGQSVPLNTSTTTDPATTSTPPASVDTTATNTQTPAVTAPAPAVDPQQNAVVSPSQANVDTAATPVPTAATTPDGAAPLPTDQAGVTTPAADPNALVMNFTADCWLEVTDATGKKLFSGMQRKDGNLNLTGQAPYKLKIGAPAAVQIQYQGKPVDLSRFIRTNQVARLTLNAEQSPAQ
notes: RodZ of Shigella sonnei, residues 50-337; The forward primer adds a start methionine before D50; calculated mass 31.64 kDa; also called N-terminal deletion RodZ_(50-337); not shown: His6, C-terminal, kept
Question: Which “stoichiometry N” value [2] does the source give for B1 here?
Answer: 6.05 times and 6.22 times and 6.03 times

Question: What about the “stoichiometry N” value [3] of the same molecule?
Answer: ~2

B2: RodZwt (wild-type RodZ of Shigella sonnei, his6-tagged) (natural protein, S. sonnei, UniProt Q3YZ36 1-337, looked up)
chain: MNTEATHDQNEALTTGARLRNAREQLGLSQQAVAERLCLKVSTVRDIEEDKAPADLASTFLRGYIRSYARLVHIPEEELLPGLEKQAPLRAAKVAPMQSFSLGKRRKKRDGWLMTFTWLVLFVVIGLSGAWWWQDHKAQQEEITTMADQSSAELSSNSEQGQSVPLNTSTTTDPATTSTPPASVDTTATNTQTPAVTAPAPAVDPQQNAVVSPSQANVDTAATPVPTAATTPDGAAPLPTDQAGVTTPAADPNALVMNFTADCWLEVTDATGKKLFSGMQRKDGNLNLTGQAPYKLKIGAPAAVQIQYQGKPVDLSRFIRTNQVARLTLNAEQSPAQ
notes: RodZ of Shigella sonnei MS390, whole rodZ amplified with primers from the start codon to the last codon (337 residues); Cloned NdeI-XhoI into pET22b; predicted mass 36.83 kDa; The XhoI site of pET22b probably adds Leu-Glu before the his6 tag (surmise); also called his6-tagged RodZ; purified RodZwt; not shown: His6, C-terminal, kept
Question: Which “stoichiometry N” value [2] does the source give for B2 here?
Answer: 6.36 times and 6 times

Question: And the “stoichiometry N” value [3]?
Answer: ~6

B3: RodZ_(1–142) (domain or fragment)
chain: MNTEATHDQNEALTTGARLRNAREQLGLSQQAVAERLCLKVSTVRDIEEDKAPADLASTFLRGYIRSYARLVHIPEEELLPGLEKQAPLRAAKVAPMQSFSLGKRRKKRDGWLMTFTWLVLFVVIGLSGAWWWQDHKAQQEE
notes: RodZ of Shigella sonnei, residues 1-142; not shown: His6, C-terminal, kept
Question: Does B3 bind [3]?
Answer: binds
